Experiments:
[1] = Summary of tracer stability in vitro and in vivo; conditions: summary table, in vitro and in vivo
Procedure: Stability of the tracers was determined in PBS and human plasma. In a typical experiment, 1 MBq of radioactivity (10–20 µL) was added to 250 µL of PBS or human plasma. Samples were heated to 37 °C on a shaker and sampled at fixed intervals. For samples containing human plasma, protein was precipitated using two volumes of cold MeCN. Precipitated samples were briefly centrifuged to pellet the insoluble fraction and supernatant was used for stability assessment. Supernatant (1 µL) was loaded on a TLC plate and imaged using BAS-IP MS 2025 E plates (Fujifilm, Tokyo, Japan) on an Amersham Typhoon Biomolecular Imager (GE Healthcare Bio-Sciences Corp, Chicago, United States) equipped with a phosphor imaging stage. [^18F]BODIPY-FL-vancomycin has an Rf of 0.68 (petroleum ether/MeOH 3:1), [^18F]FB-vancomycin has an Rf of 0.66 (2 M NaOAc/MeOH 5:1). For [^18F]PQ-VE1-vancomycin, conditions described in [44] were used.

[2] = Distribution coefficient LogD7.4, shake-flask n-octanol/PBS; type: physicochemical; conditions: shake-flask n-octanol/PBS pH 7.4, 500 µL each, 10 µL tracer in saline, vortexed 30 s, shaken 15 min, gamma counter, mean ± SD
Procedure: The tracer distribution coefficient in n-octanol/PBS pH 7.4 (LogD7.4) was determined using a shake-flask methodology. To an Eppendorf tube containing 500 µL n-octanol and 500 µL PBS, 10 µL tracer solution in saline was added. The vial was vortexed for 30 s and placed on an Eppendorf shaker for 15 min. After incubation, layers were separated by centrifugation (1 min at 10.000 rpm) and a fraction of the n-octanol layer was pipetted off. To minimize contamination of the bottom layer with the n-octanol layer, the bottom PBS layer was collected by puncturing the bottom of the Eppendorf tube with a 22G needle and aspirating a fraction of the PBS layer. Collected fractions were weighted to correct for collected volume and subsequently measured on a calibrated gamma counter and corrected for decay. LogD7.4 was calculated as [drawing 1] .

[3] = Biodistribution in vivo and PET in healthy mice; conditions: for tissue uptake at 0.5 h / tissue uptake at 1 h / tissue uptake at 1.5 h: male, C57BL/6, mouse, in vivo, iv, 2 MBq, total radioactivity, Biodistribution, healthy male C57BL/6 mice, penile vein injection, gamma counter, mean of n = 3; for tissue uptake at 0.5 h: 30 min; for tissue uptake at 1 h: 60 min; for tissue uptake at 1.5 h: 90 min
Procedure: All murine experiments were approved by the Animal Care and Use Committee of the University of Groningen under license protocol number 2114768-01-001. In vivo biodistribution was performed in male C57BL/6 mice (age 8 weeks, 25 g). Per tracer, the animals were divided in three groups based on the tracer distribution times (30 min, 60 min, and 90 min). […] Each experimental arm (i.e. time point) consisted of three animals. […] Tracer was administered at t = 0 via penile vein injection (2.0 ± 0.9 MBq in 100 µL 0.9% saline solution, Supplemental Table 2). After tracer administration, the animals were transferred to a Siemens Focus 220 microPET small animal scanner (Siemens, Munich, Germany) and scanned for the designated time, followed by a transmission scan of 10 min for attenuation correction. PET data were normalized and corrected for decay, after which the PET data were reconstructed using OSEM2D-Z1-SC-256. The PET data frames used for reconstruction were: 6 × 10 s, 4 × 30 s, 2 × 60 s, 120 s, 180 s, 4 × 300 s, 3 × 600 s, 1200 s or until the designated scan time was reached, taking into account a 10-min transmission scan following the emission scan. Next, animals were terminated, and organs harvested to assay biodistribution in a calibrated gamma counter (Wizard2, Perkin Elmer, Waltham, United States).

CN[C@H](CC(C)C)C(=O)N[C@H]1C(=O)N[C@@H](CC(N)=O)C(=O)N[C@H]2C(=O)N[C@H]3C(=O)N[C@H](C(=O)N[C@H](C(=O)O)c4cc(O)cc(O)c4-c4cc3ccc4O)[C@H](O)c3ccc(c(Cl)c3)Oc3cc2cc(c3O[C@@H]2O[C@H](CO)[C@@H](O)[C@H](O)[C@H]2O[C@H]2C[C@](C)(NC(=O)c3ccc4c5c(c6ccccc6c4c3)OCC(OCCF)O5)[C@H](O)[C@H](C)O2)Oc2ccc(cc2Cl)[C@H]1O (stereo partly drawn) [[^18F]PQ-VE1-vancomycin]
Stability [1]: Stable in vitro and in vivo up to 2 h.
LogD7.4 [2]: -0.51 ± 0.07 (n = 9)
Crossing of the blood-brain barrier (BBB) ([3]; healthy mice, intravenous injection): no substantial signal was observed in the brain
Accumulation ([3]; healthy mice, summary table): Accumulation in spleen, liver and lungs
Clearance ([3]; healthy mice, summary table): Slow renal clearance
Muscle uptake ([3]; healthy mice, summary table): Low muscle uptake
tissue uptake at 0.5 h ([3]; Bladder): 3.12 %ID/g
tissue uptake at 1 h ([3]; Bladder): 3.83 %ID/g
tissue uptake at 1.5 h ([3]; Bladder): 3.73 %ID/g
tissue uptake at 0.5 h ([3]; Bone): 1.14 %ID/g
tissue uptake at 1 h ([3]; Bone): 1.34 %ID/g
tissue uptake at 1.5 h ([3]; Bone): 0.75 %ID/g
tissue uptake at 0.5 h ([3]; Brain): 0.14 %ID/g
tissue uptake at 1 h ([3]; Brain): 0.14 %ID/g
tissue uptake at 1.5 h ([3]; Brain): 0.17 %ID/g
tissue uptake at 0.5 h ([3]; Fat): 0.81 %ID/g
tissue uptake at 1 h ([3]; Fat): 0.79 %ID/g
tissue uptake at 1.5 h ([3]; Fat): 0.55 %ID/g
tissue uptake at 0.5 h ([3]; Heart): 3.54 %ID/g
tissue uptake at 1 h ([3]; Heart): 2.6 %ID/g
tissue uptake at 1.5 h ([3]; Heart): 1.82 %ID/g
tissue uptake at 0.5 h ([3]; Kidneys): 3.37 %ID/g
tissue uptake at 1 h ([3]; Kidneys): 2.73 %ID/g
tissue uptake at 1.5 h ([3]; Kidneys): 2.04 %ID/g
tissue uptake at 0.5 h ([3]; Large intestine): 2.28 %ID/g
tissue uptake at 1 h ([3]; Large intestine): 1.81 %ID/g
tissue uptake at 1.5 h ([3]; Large intestine): 1.98 %ID/g
tissue uptake at 0.5 h ([3]; Liver): 10.5 %ID/g
tissue uptake at 1 h ([3]; Liver): 9.33 %ID/g
tissue uptake at 1.5 h ([3]; Liver): 7.72 %ID/g
tissue uptake at 0.5 h ([3]; Lungs): 4.71 %ID/g
tissue uptake at 1 h ([3]; Lungs): 3.8 %ID/g
tissue uptake at 1.5 h ([3]; Lungs): 3.21 %ID/g
tissue uptake at 0.5 h ([3]; Muscle): 0.86 %ID/g
tissue uptake at 1 h ([3]; Muscle): 0.85 %ID/g
tissue uptake at 1.5 h ([3]; Muscle): 0.6 %ID/g
tissue uptake at 0.5 h ([3]; Plasma): 6.12 %ID/g
tissue uptake at 1 h ([3]; Plasma): 4.47 %ID/g
tissue uptake at 1.5 h ([3]; Plasma): 2.88 %ID/g
tissue uptake at 0.5 h ([3]; Small intestine): 2.99 %ID/g
tissue uptake at 1 h ([3]; Small intestine): 2.19 %ID/g
tissue uptake at 1.5 h ([3]; Small intestine): 1.79 %ID/g
tissue uptake at 0.5 h ([3]; Spleen): 7.89 %ID/g
tissue uptake at 1 h ([3]; Spleen): 11.5 %ID/g
tissue uptake at 1.5 h ([3]; Spleen): 8.39 %ID/g
tissue uptake at 0.5 h ([3]; Stomach): 2.28 %ID/g
tissue uptake at 1 h ([3]; Stomach): 2.45 %ID/g
tissue uptake at 1.5 h ([3]; Stomach): 1.92 %ID/g
tissue uptake at 0.5 h ([3]; Whole blood): 3.71 %ID/g
tissue uptake at 1 h ([3]; Whole blood): 2.56 %ID/g
tissue uptake at 1.5 h ([3]; Whole blood): 1.86 %ID/g
